Consider 13 molecules from patent publication US6787341B2, “Pharmacological targeting of bacterial DNA ligase for treatment and prevention of bacterial infections” (priority 2001, dated 2004).

Where a chain is given by its changes, count along the chain named. In names and notes the source's numbering stands.

Common to all, as to type: biochemical
Assay [1] deals with E. coli LigA. The settings on record: for Nick Joining Activity (% of WT): specific activity by protein titration under steady-state conditions, normalized to wild-type ligase. The protocol:
(§1) FIG. 12A: Aliquots (5 μg) of wild-type (WT) E. coli ligase, N-terminal deletion mutants NΔ38 and NΔ78, and the full-length ligase proteins containing the indicated alanine mutations in domain Ia were analyzed by SDS-PAGE. A Coomassie blue-stained gel is shown. FIG. 12B: Ligase adenylation reaction mixtures (20 μl) containing 50 mM Tris-HCl (pH 7.5), 5 mM DTT, 5 mM MgCl2, 1 μM [α-^32P]NAD^+ and 8 pmol of WT ligase, NΔ38, NΔ78, or the indicated alanine mutants were incubated for 5 min at 37° C. The reaction products were resolved by SDS-PAGE and visualized by autoradiography. FIG. 12C: Nick joining reaction mixtures (20 μl) containing 50 mM Tris-HCl (pH 7.5), 10 mM (NH4)2SO4, 5 mM DTT, 5 mM MgCl2, 20 μM NAD^+, 1 pmol of ^32P-labeled nicked DNA, and increasing amounts of WT ligase or the indicated alanine mutants were incubated for 10 min at 22° C. The extents of ligation are plotted as a function of input protein.
To further probe the role of domain Ia in NAD^+ recognition and nucleotidyl transfer, single alanine substitutions were introduced at six positions in the Ia domain of E. coli LigA. The six mutated Eco ligase residues—Glu10, Tyr22, His23, Asp32, Tyr35, and Asp36—correspond to the six residues that were subjected to alanine scanning mutagenesis in AmEPV ligase (FIG. 11). […] The conserved positions are denoted by shaded boxes in FIG. 11. The Eco ligase mutants E10A, Y22A, H23A, D32A, Y35A, and D36A were produced in E. coli and purified by Ni-agarose chromatography in parallel with wild-type ligase (FIG. 12A).
To evaluate the roles of charge, hydrogen bonding potential, and steric constraints in the functions of the domain Ia residues implicated in the step 1 reaction with NAD^+, the effects of conservative substitutions were tested. Tyr22 and Tyr35 were replaced by Phe and Ser, His23 was changed to Tyr, and Asp32 and Asp36 were mutated to Glu and Asn. The recombinant mutant ligases were purified from soluble bacterial extracts by Ni-agarose chromatography (FIG. 15A). The specific activity of each mutant was determined under steady-state conditions by protein titration and normalized to the specific activity of wild-type ligase.

The subject of assay [2] is E. coli LigA. The conditions noted are these: for rate of ligase adenylation (kinetic pattern): 1 μM [32P-AMP]NAD+, 15-120 s; for ligase adenylation (ligase-AMP formation) with NAD+: qualitative. The protocol:
as §1
FIG. 15A: Aliquots (5 μg) of wild-type (WT) E. coli ligase and proteins containing the indicated mutations in domain Ia were analyzed by SDS-PAGE. The Coomassie blue-stained gel is shown. The positions and sizes (in kDa) of marker proteins are indicated on the left. FIG. 15B: Ligase adenylation reaction mixtures (20 μl) containing 50 mM Tris-HCl (pH 7.5), 5 mM DTT, 5 mM MgCl2, 1 μM [α-^32P]NAD^+ and 8 pmol of WT ligase or the indicated mutants were incubated for 5 min at 37° C. The reaction products were resolved by SDS-PAGE and visualized by autoradiography.
Reaction mixtures containing (per 20 μl) 50 mM Tris-HCl (pH 7.5), 5 mM DTT, 5 mM MgCl2, 1 μM [^32P-AMP]NAD^+ and 8 pmol of ligase were incubated at 22° C. Aliquots (20 μl) were withdrawn at 15, 30, 60 and 120 s and then quenched immediately with SDS. The products were analyzed by SDS-PAGE. Formation of the ligase-[^32P]AMP adduct is plotted as a function of time.
The first step in DNA ligation involves formation of a covalent enzyme-adenylate intermediate.

Assay [3] concerns E. coli LigA. The settings on record: for phosphodiester formation at pre-adenylated nick: qualitative, magnesium, no added NAD+. The protocol: Reaction mixtures containing 1 pmol of ^32P-labeled nicked DNA-adenylate (AppDNA) and either 8 pmol of wild-type (WT) E. coli ligase, deletion mutants NΔ38 and NΔ78, or the full-length ligase proteins containing the indicated alanine mutations in domain Ia were incubated for 60 min at 22° C. The reaction products were resolved by denaturing PAGE. An autoradiograph of the gel is shown. Control reaction mixtures containing either ^32P-labeled nicked DNA-adenylate (AppDNA) or nicked DNA (pDNA) substrates and no ligase are shown in lanes -. The positions of the pDNA, AppDNA, and ligated 36-mer DNA strands are indicated by arrows on the right. The position of the radiolabeled phosphate of AppDNA is denoted by •. The nicked DNA-adenylate substrate used in the ligation reactions is illustrated at the bottom.
The nicked DNA-adenylate substrate is illustrated in FIG. 13. The DNA-adenylate ligation reaction mixtures (20 μl) contained 50 mM Tris-HCl (pH 7.5), 5 mM DTT, 5 mM MgCl2, 200 fmol of nicked DNA-adenylate substrate, 2 pmol of wild-type or mutant EcoLigA proteins as specified were incubated at 22° C. The sealing reactions were initiated by adding ligase. Aliquots (20 μl) were withdrawn at the times specified and quenched immediately with EDTA and formamide. The products were resolved by denaturing PAGE and the extents of ligation were determined by scanning the gel with a phosphorimager. The extent of strand joining is plotted as a function of reaction time.
The third step of the ligation pathway entails attack of the 3′ OH of the nick on the 5′ PO4 of the DNA-adenylate to form a phosphodiester and release AMP. Step 3 of the ligation reaction was assayed using a pre-adenylated nicked DNA substrate labeled with ^32P on the 5′ PO4 of the DNA-adenylate strand (FIG. 13).

B1: Y22F: E. coli LigA with Tyr22 replaced by Phe (protein, UniProt P15042 1-671, looked up, variant Y22F)
DNA ligase: MESIEQQLTELRTTLRHHEYLFHVMDAPEIPDAEYDRLMRELRELETKHPELITPDSPTQRVGAAPLAAFSQIRHEVPMLSLDNVFDEESFLAFNKRVQDRLKNNEKVTWCCELKLDGLAVSILYENGVLVSAATRGDGTTGEDITSNVRTIRAIPLKLHGENIPARLEVRGEVFLPQAGFEKINEDARRTGGKVFANPRNAAAGSLRQLDPRITAKRPLTFFCYGVGVLEGGELPDTHLGRLLQFKKWGLPVSDRVTLCESAEEVLAFYHKVEEDRPTLGFDIDGVVIKVNSLAQQEQLGFVARAPRWAVAFKFPAQEQMTFVRDVEFQVGRTGAITPVARLEPVHVAGVLVSNATLHNADEIERLGLRIGDKVVIRRAGDVIPQVVNVVLSERPEDTREVVFPTHCPVCGSDVERVEGEAVARCTGGLICGAQRKESLKHFVSRRAMDVDGMGDKIIDQLVEKEYVHTPADLFKLTAGKLTGLERMGPKSAQNVVNALEKAKETTFARFLYALGIREVGEATAAGLAAYFGTLEALEAASIEELQKVPDVGIVVASHVHNFFAEESNRNVISELLAEGVHWPAPIVINAEEIDSPFAGKTVVLTGSLSQMSRDDAKARLVELGAKVAGSVSKKTDLVIAGEAAGSKLAKAQELGIEVIDEAEMLRLLGS
With B1, the “Nick Joining Activity (% of WT)” value with E. coli LigA [1] is listed as 9 % of WT. Besides, in the assay on E. coli LigA [2], the “rate of ligase adenylation (kinetic pattern)” value (from here on “rate of ligase adenylation”) was “reacted slowly” and the “ligase adenylation (ligase-AMP formation) with NAD+” value (“ligase adenylation … with NAD+” for short) is on record as “weakly active”.

B2: Y22S: E. coli LigA with Tyr22 replaced by Ser (protein, UniProt P15042 1-671, looked up, variant Y22S)
DNA ligase: B1 DNA ligase with F22S
For B2, the “Nick Joining Activity (% of WT)” value with E. coli LigA [1] is 0.2 % of WT. Moreover, the “ligase adenylation … with NAD+” value in the assay on E. coli LigA [2] is listed as “virtually inert”.

B3: D36N: E. coli LigA with Asp36 mutated to Asn (protein, UniProt P15042 1-671, looked up, variant D36N)
DNA ligase: B1 DNA ligase with F22Y, D36N
In the case of B3, in the assay on E. coli LigA [1], the “Nick Joining Activity (% of WT)” value is 12 % of WT. Besides, in the assay on E. coli LigA [2], the “rate of ligase adenylation” value is given as “faster than D36E” and the “ligase adenylation … with NAD+” value is reported as “partially active”.

B4: E10A: E. coli LigA with Glu10 replaced by alanine in domain Ia (protein, UniProt P15042 1-671, looked up, variant E10A)
DNA ligase: B1 DNA ligase with E10A, F22Y
Regarding B4, the “Nick Joining Activity (% of WT)” value in the assay on E. coli LigA [1] was 90 % of WT. Besides, in the assay with E. coli LigA [2], the “ligase adenylation … with NAD+” value is given as “did not affect”. For the same molecule, in the assay with E. coli LigA [3], the “phosphodiester formation at pre-adenylated nick” value was “catalytically active”.

B5: D32E: E. coli LigA with Asp32 mutated to Glu (protein, UniProt P15042 1-671, looked up, variant D32E)
DNA ligase: B1 DNA ligase with F22Y, D32E
In the case of B5, in the assay with E. coli LigA [1], the “Nick Joining Activity (% of WT)” value is given as 0.4 % of WT. Also, the “ligase adenylation … with NAD+” value in the assay on E. coli LigA [2] is recorded as “more severely affected”.

B6: D32N: E. coli LigA with Asp32 mutated to Asn (protein, UniProt P15042 1-671, looked up, variant D32N)
DNA ligase: B1 DNA ligase with F22Y, D32N
For the molecule B6, the “Nick Joining Activity (% of WT)” value in the assay with E. coli LigA [1] is recorded as 9 % of WT. In addition, in the assay on E. coli LigA [2], the “rate of ligase adenylation” value is “faster than D32E” and the “ligase adenylation … with NAD+” value was “partially active”.

B7: Y35S: E. coli LigA with Tyr35 replaced by Ser (protein, UniProt P15042 1-671, looked up, variant Y35S)
DNA ligase: B1 DNA ligase with F22Y, Y35S
As to B7, the “Nick Joining Activity (% of WT)” value in the assay with E. coli LigA [1] is on record as <0.1 % of WT. The “ligase adenylation … with NAD+” value in the assay on E. coli LigA [2] is given as “apparently unreactive”.

B8: H23A: E. coli LigA with His23 replaced by alanine (protein, UniProt P15042 1-671, looked up, variant H23A)
DNA ligase: B1 DNA ligase with F22Y, H23A
Consider B8, for which, in the assay on E. coli LigA [1], the “Nick Joining Activity (% of WT)” value is recorded as 10 % of WT. Also, in the assay with E. coli LigA [2], the “rate of ligase adenylation” value is “reacted slowly” and the “ligase adenylation … with NAD+” value is listed as “less active”. The “phosphodiester formation at pre-adenylated nick” value in the assay with E. coli LigA [3] is recorded as “catalytically active”.

B9: Y35F: E. coli LigA with Tyr35 replaced by Phe (protein, UniProt P15042 1-671, looked up, variant Y35F)
DNA ligase: B1 DNA ligase with F22Y, Y35F
In the case of B9, in the assay on E. coli LigA [1], the “Nick Joining Activity (% of WT)” value is 23 % of WT. For the same molecule, in the assay with E. coli LigA [2], the “rate of ligase adenylation” value is “faster than Y35A” and the “ligase adenylation … with NAD+” value is on record as “restored adenylation activity”.

B10: D32A: E. coli LigA with Asp32 replaced by alanine (protein, UniProt P15042 1-671, looked up, variant D32A)
DNA ligase: B1 DNA ligase with F22Y, D32A
On to B10, for which, in the assay on E. coli LigA [1], the “nick ligation (qualitative)” value was “virtually inert” and the “Nick Joining Activity (% of WT)” value is 0.2 % of WT. Moreover, the “ligase adenylation … with NAD+” value with E. coli LigA [2] is listed as “virtually inert”. In the assay with E. coli LigA [3], the “phosphodiester formation at pre-adenylated nick” value is “catalytically active”.

B11: D36E: E. coli LigA with Asp36 mutated to Glu (protein, UniProt P15042 1-671, looked up, variant D36E)
DNA ligase: B1 DNA ligase with F22Y, D36E
In the case of B11, in the assay with E. coli LigA [1], the “Nick Joining Activity (% of WT)” value was 4 % of WT. Besides, the “ligase adenylation … with NAD+” value with E. coli LigA [2] is “more severely affected”.

B12: H23Y: E. coli LigA with His23 changed to Tyr (protein, UniProt P15042 1-671, looked up, variant H23Y)
DNA ligase: B1 DNA ligase with F22Y, H23Y
As to B12, the “Nick Joining Activity (% of WT)” value in the assay on E. coli LigA [1] was 88 % of WT. Besides, the “ligase adenylation … with NAD+” value in the assay on E. coli LigA [2] is given as “restored the yield of ligase-AMP adduct to the wild-type level”.

B13: Y22A: E. coli LigA with Tyr22 replaced by alanine (protein, UniProt P15042 1-671, looked up, variant Y22A)
DNA ligase: B1 DNA ligase with F22A
Turning to B13, in the assay with E. coli LigA [1], the “nick ligation (qualitative)” value was “virtually inert” and the “Nick Joining Activity (% of WT)” value is listed as 0.1 % of WT. The “ligase adenylation … with NAD+” value in the assay with E. coli LigA [2] is given as “virtually inert”. In addition, in the assay on E. coli LigA [3], the “effect on rate or extent (yield) of phosphodiester formation at a pre-adenylated nick” value is listed as “no effect” and the “phosphodiester formation at pre-adenylated nick” value is “catalytically active”.
